# Data reported in US5648211.
# System: BsrI
# Experiment: cleavage_in_vitro
# Details: PS at A in filled-in regions; SDA cycle turnover with Bst polymerase; 60 C, 6 mM MgCl2, 50 mM KCl, pH 7.6
sequence,measurement,value
CCACCTCTGACTTGAGCGTCCCAGTGTCAATACGGCGGAGCCTATGGAGTAACGCC / GCAAAAGGCCAGGAACCGATAAAAGGATGCGTTGCTGGCGTTACTCCATAGGCTCCG [linear SDA BsrI duplex (filled in to 92 bp)],activity,1 min⁻¹
